Assay results reported in patent US20210317225A1 (Genmab, published 2021).

B1: CD40-001-FEALxCD137-008-FEAR (bispecific antibody, human IgG1, kappa)
heavy 1: EVQLQQSGPDLVKPGASVKISCKTSGYTFTEYIMHWVKQSHGKSLEWIGGIIPNNGGTSYNQKFKDKATMTVDKSSSTGYMELRSLTSEDSAVYYCTRREVYGRNYYALDYWGQGTLVTVSSASTKGPSVFPLAPSSKSTSGGTAALGCLVKDYFPEPVTVSWNSGALTSGVHTFPAVLQSSGLYSLSSVVTVPSSSLGTQTYICNVNHKPSNTKVDKRVEPKSCDKTHTCPPCPAPEFEGGPSVFLFPPKPKDTLMISRTPEVTCVVVAVSHEDPEVKFNWYVDGVEVHNAKTKPREEQYNSTYRVVSVLTVLHQDWLNGKEYKCKVSNKALPAPIEKTISKAKGQPREPQVYTLPPSREEMTKNQVSLTCLVKGFYPSDIAVEWESNGQPENNYKTTPPVLDSDGSFLLYSKLTVDKSRWQQGNVFSCSVMHEALHNHYTQKSLSLSPGK
light 1: DIQMTQTTSSLSASLGDRVTITCSASQGINNYLNWYQQKPDGTVKLLIYYTSSLHSGVPSRFSGSGSGTDYSLTISNLEPEDIATYYCQQYSNLPYTFGGGTKLEIKRTVAAPSVFIFPPSDEQLKSGTASVVCLLNNFYPREAKVQWKVDNALQSGNSQESVTEQDSKDSTYSLSSTLTLSKADYEKHKVYACEVTHQGLSSPVTKSFNRGEC
heavy 2: QSLEESGGRLVTPGTPLTLTCTASGFSLSSYDMSWVRQAPGKGLEYIGYISSSGNTYYASWAKSRFTISKTSTTVDLKITSPTTEDTATYFCAREGDYWDFNLWGPGTLVTVSSASTKGPSVFPLAPSSKSTSGGTAALGCLVKDYFPEPVTVSWNSGALTSGVHTFPAVLQSSGLYSLSSVVTVPSSSLGTQTYICNVNHKPSNTKVDKRVEPKSCDKTHTCPPCPAPEFEGGPSVFLFPPKPKDTLMISRTPEVTCVVVAVSHEDPEVKFNWYVDGVEVHNAKTKPREEQYNSTYRVVSVLTVLHQDWLNGKEYKCKVSNKALPAPIEKTISKAKGQPREPQVYTLPPSREEMTKNQVSLTCLVKGFYPSDIAVEWESNGQPENNYKTTPPVLDSDGSFFLYSRLTVDKSRWQQGNVFSCSVMHEALHNHYTQKSLSLSPGK
light 2: AQVLTQTPSSVSAAVGGTVTINCQASQSISNLLAWYQQKPGQRPRLLIYRASTLASGVPSRFKGSGSGTEFTLTISDLESEDAATYYCAGGFPGLDTGATFGGGTEAVVTRTVAAPSVFIFPPSDEQLKSGTASVVCLLNNFYPREAKVQWKVDNALQSGNSQESVTEQDSKDSTYSLSSTLTLSKADYEKHKVYACEVTHQGLSSPVTKSFNRGEC
B2: CD40-001-FEALxCD137-009-FEAR (bispecific antibody, human IgG1, kappa)
heavy 1: EVQLQQSGPDLVKPGASVKISCKTSGYTFTEYIMHWVKQSHGKSLEWIGGIIPNNGGTSYNQKFKDKATMTVDKSSSTGYMELRSLTSEDSAVYYCTRREVYGRNYYALDYWGQGTLVTVSSASTKGPSVFPLAPSSKSTSGGTAALGCLVKDYFPEPVTVSWNSGALTSGVHTFPAVLQSSGLYSLSSVVTVPSSSLGTQTYICNVNHKPSNTKVDKRVEPKSCDKTHTCPPCPAPEFEGGPSVFLFPPKPKDTLMISRTPEVTCVVVAVSHEDPEVKFNWYVDGVEVHNAKTKPREEQYNSTYRVVSVLTVLHQDWLNGKEYKCKVSNKALPAPIEKTISKAKGQPREPQVYTLPPSREEMTKNQVSLTCLVKGFYPSDIAVEWESNGQPENNYKTTPPVLDSDGSFLLYSKLTVDKSRWQQGNVFSCSVMHEALHNHYTQKSLSLSPGK
light 1: DIQMTQTTSSLSASLGDRVTITCSASQGINNYLNWYQQKPDGTVKLLIYYTSSLHSGVPSRFSGSGSGTDYSLTISNLEPEDIATYYCQQYSNLPYTFGGGTKLEIKRTVAAPSVFIFPPSDEQLKSGTASVVCLLNNFYPREAKVQWKVDNALQSGNSQESVTEQDSKDSTYSLSSTLTLSKADYEKHKVYACEVTHQGLSSPVTKSFNRGEC
heavy 2: QSLEESGGRLVTPGTPLTLTCTVSGFSLNDYWMSWVRQAPGKGLEWIGYIDVGGSLYYASWAKGRFTISRTSTTVDLKMTSLTTEDTATYFCARGGLTYGFDLWGPGTLVTVSSASTKGPSVFPLAPSSKSTSGGTAALGCLVKDYFPEPVTVSWNSGALTSGVHTFPAVLQSSGLYSLSSVVTVPSSSLGTQTYICNVNHKPSNTKVDKRVEPKSCDKTHTCPPCPAPEFEGGPSVFLFPPKPKDTLMISRTPEVTCVVVAVSHEDPEVKFNWYVDGVEVHNAKTKPREEQYNSTYRVVSVLTVLHQDWLNGKEYKCKVSNKALPAPIEKTISKAKGQPREPQVYTLPPSREEMTKNQVSLTCLVKGFYPSDIAVEWESNGQPENNYKTTPPVLDSDGSFFLYSRLTVDKSRWQQGNVFSCSVMHEALHNHYTQKSLSLSPGK
light 2: DIVMTQTPASVSEPVGGTVTINCQASEDISSYLAWYQQKPGQRPKRLIYGASDLASGVPSRFSASGSGTEYALTISDLESADAATYYCHYYATISGLGVAFGGGTEVVVKRTVAAPSVFIFPPSDEQLKSGTASVVCLLNNFYPREAKVQWKVDNALQSGNSQESVTEQDSKDSTYSLSSTLTLSKADYEKHKVYACEVTHQGLSSPVTKSFNRGEC
B3: CD40-001-FEALxCD137-010-FEAR (bispecific antibody, human IgG1, kappa)
heavy 1: EVQLQQSGPDLVKPGASVKISCKTSGYTFTEYIMHWVKQSHGKSLEWIGGIIPNNGGTSYNQKFKDKATMTVDKSSSTGYMELRSLTSEDSAVYYCTRREVYGRNYYALDYWGQGTLVTVSSASTKGPSVFPLAPSSKSTSGGTAALGCLVKDYFPEPVTVSWNSGALTSGVHTFPAVLQSSGLYSLSSVVTVPSSSLGTQTYICNVNHKPSNTKVDKRVEPKSCDKTHTCPPCPAPEFEGGPSVFLFPPKPKDTLMISRTPEVTCVVVAVSHEDPEVKFNWYVDGVEVHNAKTKPREEQYNSTYRVVSVLTVLHQDWLNGKEYKCKVSNKALPAPIEKTISKAKGQPREPQVYTLPPSREEMTKNQVSLTCLVKGFYPSDIAVEWESNGQPENNYKTTPPVLDSDGSFLLYSKLTVDKSRWQQGNVFSCSVMHEALHNHYTQKSLSLSPGK
light 1: DIQMTQTTSSLSASLGDRVTITCSASQGINNYLNWYQQKPDGTVKLLIYYTSSLHSGVPSRFSGSGSGTDYSLTISNLEPEDIATYYCQQYSNLPYTFGGGTKLEIKRTVAAPSVFIFPPSDEQLKSGTASVVCLLNNFYPREAKVQWKVDNALQSGNSQESVTEQDSKDSTYSLSSTLTLSKADYEKHKVYACEVTHQGLSSPVTKSFNRGEC
heavy 2: QSVEESGGRLVTPGTPLTLTCTVSGFSLSTYAMIWVRQAPGKGLEWIGVVYDNGYISHATWVKGRFTISKTSTTVGLEITSPTTEDTATYFCARSADGSWSTYFNLWGQGTLVTVSSASTKGPSVFPLAPSSKSTSGGTAALGCLVKDYFPEPVTVSWNSGALTSGVHTFPAVLQSSGLYSLSSVVTVPSSSLGTQTYICNVNHKPSNTKVDKRVEPKSCDKTHTCPPCPAPEFEGGPSVFLFPPKPKDTLMISRTPEVTCVVVAVSHEDPEVKFNWYVDGVEVHNAKTKPREEQYNSTYRVVSVLTVLHQDWLNGKEYKCKVSNKALPAPIEKTISKAKGQPREPQVYTLPPSREEMTKNQVSLTCLVKGFYPSDIAVEWESNGQPENNYKTTPPVLDSDGSFFLYSRLTVDKSRWQQGNVFSCSVMHEALHNHYTQKSLSLSPGK
light 2: DIVMTQTPASVEAAVGGTVTIKCQASESISNYLAWYQQKPGQPPKLLIYKASTLASGVSSRFKGSGSGTEFTLTISDLESADAATYYCQTNYCCSSSDNGFAFGGGTEVVVKRTVAAPSVFIFPPSDEQLKSGTASVVCLLNNFYPREAKVQWKVDNALQSGNSQESVTEQDSKDSTYSLSSTLTLSKADYEKHKVYACEVTHQGLSSPVTKSFNRGEC
B4: CD40-001-FEALxCD137-011-FEAR (bispecific antibody, human IgG1, kappa)
heavy 1: EVQLQQSGPDLVKPGASVKISCKTSGYTFTEYIMHWVKQSHGKSLEWIGGIIPNNGGTSYNQKFKDKATMTVDKSSSTGYMELRSLTSEDSAVYYCTRREVYGRNYYALDYWGQGTLVTVSSASTKGPSVFPLAPSSKSTSGGTAALGCLVKDYFPEPVTVSWNSGALTSGVHTFPAVLQSSGLYSLSSVVTVPSSSLGTQTYICNVNHKPSNTKVDKRVEPKSCDKTHTCPPCPAPEFEGGPSVFLFPPKPKDTLMISRTPEVTCVVVAVSHEDPEVKFNWYVDGVEVHNAKTKPREEQYNSTYRVVSVLTVLHQDWLNGKEYKCKVSNKALPAPIEKTISKAKGQPREPQVYTLPPSREEMTKNQVSLTCLVKGFYPSDIAVEWESNGQPENNYKTTPPVLDSDGSFLLYSKLTVDKSRWQQGNVFSCSVMHEALHNHYTQKSLSLSPGK
light 1: DIQMTQTTSSLSASLGDRVTITCSASQGINNYLNWYQQKPDGTVKLLIYYTSSLHSGVPSRFSGSGSGTDYSLTISNLEPEDIATYYCQQYSNLPYTFGGGTKLEIKRTVAAPSVFIFPPSDEQLKSGTASVVCLLNNFYPREAKVQWKVDNALQSGNSQESVTEQDSKDSTYSLSSTLTLSKADYEKHKVYACEVTHQGLSSPVTKSFNRGEC
heavy 2: QSLEESGGRLVTPGTPLTLTCTVSGIDLSSYHMCWVRQAPGKGLEYIGYIAYGGNTYYANWAKGRFTISKTSTTVDLRITSPTTEDTATYFCARGYSEDSYWGLWGPGTLVTVSSASTKGPSVFPLAPSSKSTSGGTAALGCLVKDYFPEPVTVSWNSGALTSGVHTFPAVLQSSGLYSLSSVVTVPSSSLGTQTYICNVNHKPSNTKVDKRVEPKSCDKTHTCPPCPAPEFEGGPSVFLFPPKPKDTLMISRTPEVTCVVVAVSHEDPEVKFNWYVDGVEVHNAKTKPREEQYNSTYRVVSVLTVLHQDWLNGKEYKCKVSNKALPAPIEKTISKAKGQPREPQVYTLPPSREEMTKNQVSLTCLVKGFYPSDIAVEWESNGQPENNYKTTPPVLDSDGSFFLYSRLTVDKSRWQQGNVFSCSVMHEALHNHYTQKSLSLSPGK
light 2: AYDMTQTPASVEAAVGGTVTIKCQASQNIENYLAWYQQKPGQPPKLLIYDTSKLTSGVPSRFSGSGSGTDFTLTISGVQSDDAATYYCQQDYGIIFVDNIFGGGTEVVVKRTVAAPSVFIFPPSDEQLKSGTASVVCLLNNFYPREAKVQWKVDNALQSGNSQESVTEQDSKDSTYSLSSTLTLSKADYEKHKVYACEVTHQGLSSPVTKSFNRGEC

What was measured:
Human CD40 = Human CD40 (human, UniProt P25942 21-277); assay: cell-based or functional assay
Sequence of Human CD40 (P25942 21-277): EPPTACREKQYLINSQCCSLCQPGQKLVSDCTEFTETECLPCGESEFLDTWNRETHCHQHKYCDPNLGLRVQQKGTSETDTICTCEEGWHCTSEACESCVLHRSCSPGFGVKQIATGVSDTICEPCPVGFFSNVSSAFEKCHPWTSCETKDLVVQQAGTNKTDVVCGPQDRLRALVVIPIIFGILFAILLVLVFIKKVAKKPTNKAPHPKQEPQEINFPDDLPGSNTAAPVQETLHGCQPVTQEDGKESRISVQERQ

Human CD137 (TNR9_Human) = Human CD137 (TNR9_Human) (human, UniProt Q07011 24-255); assay: cell-based or functional assay
Sequence of Human CD137 (TNR9_Human) (Q07011 24-255): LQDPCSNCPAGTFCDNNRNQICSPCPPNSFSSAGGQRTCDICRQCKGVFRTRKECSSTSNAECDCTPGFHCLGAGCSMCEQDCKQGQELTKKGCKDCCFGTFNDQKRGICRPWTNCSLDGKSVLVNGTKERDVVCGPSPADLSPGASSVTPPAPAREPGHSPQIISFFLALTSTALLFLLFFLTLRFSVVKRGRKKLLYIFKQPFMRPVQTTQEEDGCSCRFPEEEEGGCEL

Row | Binder | luciferase activity (RLU) of NF-KB/293/GFP-Luc cells transduced with CD40, incubated with K562_CD137 (Human CD40) [ng/mL] | luciferase activity (RLU) of NF-KB/293/GFP-Luc cells transduced with CD137, incubated with K562_CD40 (Human CD137 (TNR9_Human)) [ng/mL] | EC50 for induction of T-cell proliferation (antigen-specific CD8+ T-cell assay, proliferation index curves) (Human CD137 (TNR9_Human)) [µg/mL]
1 | B1 | ~100 | ~100 | –
2 | B2 | ~100 | ~100 | 0.03
3 | B3 | ~100 | ~100 | –
4 | B4 | ~100 | ~100 | –
